The test system of data set [1] is E. coli cells expressing an HPPD polypeptide. Nature of the data set: Brown Color Assay on solid LB-agar, visual score of brown pigment. It is filed as cell-based. The note with it: 25, 50, 100, 250 and 500 μM Cmpd. 1. On the procedure:
Mutant HPPD polypeptides were analyzed using a brown color assay (WO2014/043435). Bacterial cells expressing the mutant HPPD polypeptide according to the invention were assayed in 96 well format for HPPD inhibitor tolerance by spotting on solid media containing LB-agar, selection agent for the expression vector pSE420(RI)NX (WO2014/043435), 5 mM tyrosine (Sigma-Aldrich, St. Louis, USA), 42 mM succinate (Sigma-Aldrich, St. Louis, USA) and six different concentrations of the HPPD inhibitor herbicide Cmpd. 1 (0-500 μM). In the brown color assay, an overnight culture of the E. coli cells expressing one of the respective mutant HPPD polypeptides were diluted to an OD600 of 1 and 10 μl extract was spotted in triplicates on plates containing 0, 25, 50, 100, 250, or 500 μM of Cmpd. 1. Plates were covered with airpore tape and incubated at 30 degrees C. After 24 hours, the cells were kept in darkness at room temperature and after 7 days the brown pigment formation was scored visually. In the presence of an HPPD inhibitor herbicide, this pigment formation is inhibited and the color of the agar plate will not alter, unless an HPPD inhibitor herbicide tolerant HPPD polypeptide is expressed and active. […] The “++” and “+” scores a medium and light brown pigmentation, respectively, and the “0” means that no brown pigmentation development was detected on the LB agar plates.

Data set [2] concerns the target HPPD polypeptides (wild-type SEQ ID NO:1 and mutants) (Pseudomonas sp., UniProt P80064, A172V/A339V/A53E/D148E/D45N/E105D/E287Q/E300V/E334P/F143Y/G286D/G335H/H150N/H254A/H63N/I158V/I187A/I249V/I344V/K92N/L18F/N24G/N280D/N336S/P267G/S245T/S257K/S301E/T205S/T269E/V65I). The settings on record: compared with SEQ ID NO: 24; Table 3a and 3c.
Data set [3] deals with transgenic T1 soybean events. The data set is described as follows: Field trials of T1 soybean events, leaf damage eight days after application. Format: in vivo. On the procedure:
Soybean plants expressing an HPPD inhibitor tolerant polypeptide of the present invention alone, or along with a gene conferring tolerance to glyphosate and/or a gene conferring tolerance to glufosinate or having a “plant expression cassette”, which includes only an HPPD inhibitor tolerant polypeptide of the present invention, were tested for tolerance to different HPPD inhibitor herbicide chemical classes. The transgenic plants were routinely analyzed for the expression and presence of the transgenes using the ELISA protein detection method (see detailed description under item D and H). Only plants recovering in the selection media and having a detectable HPPD transgene protein expression were regenerated, transferred to the greenhouse and used at V2-V4 growth stage for the HPPD inhibitor herbicide tolerance analysis of the T0 soybean events in the greenhouse (Example 6). The chemical formulation with HPPD inhibitor herbicides was supplemented with ammonium sulfate and methyl ester rapeseed oil. Herbicide tolerance evaluation was taken 5-21 days after spraying. The best performing independent T0 soybean events were selfed to produce T1 soybean seeds. In the field trails, the advanced T1 soybean seeds were planted and treated with either 210 g/ha of isoxaflutole or 150 g/ha of Cmpd.
In Table 10, the frequency of the soybean events showing a good tolerance, i.e. equal or less than 15% damage of the total leaf area are summarized

Data set [4] addresses HPPD polypeptides (wild-type SEQ ID NO:1 and mutants) (Pseudomonas sp., UniProt P80064, A172V/A339V/A53E/D148E/D329H/D45N/E105D/E287Q/E300V/E334P/F143Y/G286D/G335D/H150N/H254A/H63N/I158V/I187A/I249V/K92N/L18F/M263R/N24G/N280D/N336S/S245T/S257K/S301E/T205S/V65I). The note with it: compared with SEQ ID NO:12; Tables 3a, 3b.
For data set [5], the system named is HPPD polypeptides (purified, wild-type SEQ ID NO:1 and mutants). The data set is described as follows: Coupled HPPD activity assay: ki determination, competitive inhibition fit. It is filed as biochemical, Pseudomonas fluorescens. The note with it: inhibitor Cmpd. 1. On the procedure: For the generation of purified HPPD polypeptide samples, cells were grown for 3 h at 37° C. in 5 ml LB medium containing 100 μg/ml ampicillin in a 50 ml shaker flask at 140 rpm. One ml of this starter culture was used as inoculum for the expression culture. […] At an OD600 of about 0.6, IPTG (Roth, Karlsruhe, Germany) was added to a concentration of 0.4 mM. After further growth for 60 min at 37° C., the temperature was reduced to 28° C. and growth continued for another 18 h at 140 rpm. Cells were harvested by centrifugation at 4° C., 3200 g for 30 min in 50 ml Falcon tubes and cell pellets were stored at −80° C. […]
The resulting protein samples were re-buffered into 20 mM Tris, 20% Glycerol (pH 7.8) (Sigma-Aldrich, St. Louis, USA) by use of Zeba™ Spin Desalting Columns, 7K MWCO, 10 mL (Thermo Fisher Scientific, Waltham, USA) and analysed for protein concentration and purity by Abs280 (NANODROP 8000, Thermo Fisher Scientific, Waltham, USA) and SDS-PAGE. […]
The mutant HPPD polypeptides represented here are examples by a way of illustration, not by a way of limitation. […] The inhibitor concentrations were adopted for the respective HPPD polypeptide/inhibitor pairs to generate dynamic data, i.e. variants with lower tolerance were analyzed in a range of lower inhibitor concentrations, and concentrations of up to 1200 μM were used for variants with maximized tolerance. […]

Data set [6] deals with HPPD polypeptides (wild-type SEQ ID NO:1 and mutants). The settings on record: 50 μM Cmpd. 1, low substrate concentration (Table 5).
For data set [7], the target named is HPPD polypeptides (wild-type SEQ ID NO:1 and mutants) (Pseudomonas sp., UniProt P80064, A172V/A339V/A53E/D148E/D45N/E105D/E287Q/E300V/E334P/F143Y/G286D/G335D/H150N/H254A/H63N/I158V/I187A/I249V/I344V/K92N/L18F/N24G/N280D/N336S/P267G/S245T/S257K/S301E/T205S/T269E/V65I). The settings on record: 50 μM Cmpd. 1, low substrate concentration.
Data set [8] addresses HPPD polypeptides (wild-type SEQ ID NO:1 and mutants) (Pseudomonas sp., UniProt P80064, A172V/A339V/A53E/D148E/D329H/D45N/E105D/E287Q/E300V/E334P/F143Y/G286D/G335D/H150N/H254A/H63N/I158V/I187A/I249V/I344V/K92N/L18F/M263R/N24G/N280D/N336S/P267G/S245T/S257K/S301E/T205S/T269E/V65I). The note with it: 15 μM Cmpd. 1, high substrate concentration (Table 3a).
Setting [9] is: 150 g/ha Cmpd. 1, stage V2-V4, eight days after application.
[10] abbreviates: 210 g/ha isoxaflutole, stage V2-V4, eight days after application.

B1: SEQ ID NO:31 (protein)
chain: MADLYENPMGLMGFEFIEFASPTPGTLEPIFEIMGFTKVATHRSKNVHLYRQGEINLILNNEPNSIASYFAAEHGPSVCGMAFRVKDSQKAYNRALELGAQPIHIDTGPMELNLPAIKGIGGAPLYLIDRFGEGSSIYDIDFVYLEGVERNPVGAGLKVIDHLTHNVYRGRMVYWANFYEKLFNFREARYFDIKGEYTGLTSKAMSAPDGMIRIPLNEESSKGAGQIEEFLMQFNGEGIQHVAFLTDDLVKTWDALKKIGMRFMTAPGDEYYEMLEGRLPDHGEPVDQLQARGILLDGSSVEGDKRLLLQIFSETLMGPVFFEFIQRKGDDGFGPHSFKVLFESVERDQVRRGVLTAD
modifications: mutant HPPD polypeptide
B1: the “brown coloring compared with SEQ ID NO: 2, in words” value in data set [1] is “stronger brown coloring”. Moreover, the “residual turnover in the presence of Cmpd. 1 and MST, in words” value in data set [2] was “increase significantly”.

B2: SEQ ID NO: 18: mutant HPPD polypeptide: M264R D330H E335P G336D N337S A340V (protein)
chain: MADLYENPMGLMGFEFIEFASPTPGTLEPIFEIMGFTKVATHRSKNVHLYRQGEINLILNNEPNSIASYFAAEHGPSVCGMAFRVKDSQKAYNRALELGAQPIHIDTGPMELNLPAIKGIGGAPLYLIDRFGEGSSIYDIDFVYLEGVERNPVGAGLKVIDHLTHNVYRGRMVYWANFYEKLFNFREARYFDIKGEYTGLTSKAMSAPDGMIRIPLNEESSKGAGQIEEFLMQFNGEGIQHVAFLTDDLVKTWDALKKIGMRFRTAPPDTYYEMLEGRLPDHGEPVDQLQARGILLDGSSVEGDKRLLLQIFSETLMGPVFFEFIQRKGHDGFGPDSFKVLFESIERDQVRRGVLTAD
modifications: mutant HPPD polypeptide
notes: mutant HPPD polypeptide: M264R D330H E335P G336D N337S A340V
On to B2, for which, in data set [3] (setting [9]), the “Frequency in the population (events with ≤15% leaf damage)” value stood at 60% and the “Independent events with ≤15% leaf damage after spray” value is reported as 12. In data set [3] (setting [10]), the “Frequency in the population (events with ≤15% leaf damage)” value is recorded as 60% and the “Independent events with ≤15% leaf damage after spray” value is given as 12. Besides, in data set [4], the “HPPD inhibitor tolerance towards Cmpd. 1 and Cmpd. 2, in words” value was “further significant improved”.

B3: SEQ ID NO:17 (protein)
chain: MADLYENPMGLMGFEFIEFASPTPGTLEPIFEIMGFTKVATHRSKNVHLYRQGEINLILNNEPNSIASYFAAEHGPSVCGMAFRVKDSQKAYNRALELGAQPIHIDTGPMELNLPAIKGIGGAPLYLIDRFGEGSSIYDIDFVYLEGVERNPVGAGLKVIDHLTHNVYRGRMVYWANFYEKLFNFREARYFDIKGEYTGLTSKAMSAPDGMIRIPLNEESSKGAGQIEEFLMQFNGEGIQHVAFLTDDLVKTWDALKKIGMRFMTAPGDEYYEMLEGRLPDHGEPVDQLQARGILLDGSSVEGDKRLLLQIFSETLMGPVFFEFIQRKGDDGFGPDSFKVLFESVERDQVRRGVLTAD
modifications: mutant HPPD polypeptide
Turning to B3, the “increase of ki towards Cmpd. 1 compared to SEQ ID NO:2” value in data set [5] was approximately 20 fold. For the same molecule, in data set [6], the Residual activity stood at 29%. In addition, the “reduction of substrate turnover” value in data set [7] is 46%.

B4: SEQ ID NO:19 (protein)
chain: MADLYENPMGLMGFEFIEFASPTPGTLEPIFEIMGFTKVATHRSKNVHLYRQGEINLILNNEPNSIASYFAAEHGPSVCGMAFRVKDSQKAYNRALELGAQPIHIDTGPMELNLPAIKGIGGAPLYLIDRFGEGSSIYDIDFVYLEGVERNPVGAGLKVIDHLTHNVYRGRMVYWANFYEKLFNFREARYFDIKGEYTGLTSKAMSAPDGMIRIPLNEESSKGAGQIEEFLMQFNGEGIQHVAFLTDDLVKTWDALKKIGMRFRTAPGDEYYEMLEGRLPDHGEPVDQLQARGILLDGSSVEGDKRLLLQIFSETLMGPVFFEFIQRKGHDGFGPDSFKVLFESVERDQVRRGVLTAD
modifications: mutant HPPD polypeptide
Take B4: the “increase of ki towards Cmpd. 1 compared to SEQ ID NO:2” value in data set [5] is given as approximately 30 fold. In data set [8], this molecule gave a Residual activity of 68% and a Residual turnover of 79%.

For the origin of these results see patent US10597674B2, “HPPD variants and methods of use” (BASF Agricultural Solutions Seed, US LLC, priority 2015, dated 2020).
